We go through four substances from paper PMC4342241, “Antimicrobial Characterization of Site-Directed Mutagenesis of Porcine Beta Defensin 2” (PLoS ONE, 2015).

The subject of one data set is porcine erythrocytes. Nature of the data set: Hemolytic activity assay (release of hemoglobin). The format is cell-based. To be noted: 0~80 μg/ml, 37°C for 1 h. As to the method: The release of hemoglobin from porcine erythrocytes was used as a measure for the hemolytic activity of defensin as described before. 1mL fresh porcine blood was centrifuged at 1800 g for 10 min for collecting erythrocytes in the presence of heparin to prevent coagulation. The pellet was washed three times and re-suspended in saline solution at the proportion of 1:9. Subsequently, 100 μL erythrocyte solution was mixed with 100 μL of individual mutated defensins (final concentrations were 0~80 μg/ml) in polypropylene 96-well microtiter plates. After incubation at 37°C for 1 h, the plate was centrifuged at 1800 g for 5 min. 100 μL supernatant was transferred to a new 96-well plate separately and the absorbance was measured at 450 nm (reference 630 nm) using a microplate reader. The hemolysis ratio was calculated by comparison with the control samples containing no peptide or 1% Trition-100 [24–25].
Different concentrations of mutant pBD2 protein (100 μL) were separately incubated with erythrocytes (100 μL) at 37°C for 1 h. Less than 10% hemolysis ratio was found at all different concentrations of mpBD2-1~8 (data not shown). No significant differences were observed among different concentrations or among different mutants (P > 0.05).

For data set [1] the following is noted: cited from earlier work. The source says:
In this report, eight amino acids of pBD2 were selected for substitution by arginine or lysine based on rational analysis. It was hypothesized that the major factor defining the antimicrobial activities of defensins was their cationicity or isoelectric point (pI) values. Indeed, the antimicrobial activities of defensins increased with their net charges. Harder et al reported that human beta defensin 3 (hBD3) had the strongest activity among hBD1, 2 and 3, because it had the most net positive charges (hBD1, 2 and 3 has +5, +6, and +11 net pos ...

Where no end group is shown, it is not given here.

For the substance Porcine β defensin 2 [pBD2], the “hemolytic activity (in words)” value in the data set on porcine erythrocytes was “low hemolytic activities”.

Consider “hBD2: human beta defensin 2 (GIGDPVTCLKSGAICHPVFCPRRYKQIGTCGLPGTKCCKKP; ends and bridges not checked; cysteine pairing not given here; UniProt O15263 24-64, looked up)”, for which the net positive charges result in data set [1] is “+6”.

Turning to “human beta defensin 3 (GIINTLQKYYCRVRGGRCAVLSCLPKEEQIGKCSTRGRKCCRRKK; ends and bridges not checked; cysteine pairing not given here; UniProt P81534 23-67, looked up) [hBD3]”, the net positive charges result in data set [1] is given as “+11”.

On to “human β defensin 1 (DHYNCVSSGGQCLYSACPIFTKIQGTCYRGKAKCCK; ends and bridges not checked; cysteine pairing not given here; UniProt P60022 33-68, looked up) [hBD1]”, for which, in data set [1], the net positive charges entry is given as “+5”.
